Ends that are not written are not given here.

Holding throughout (assay type): cell-based
The target in one assay is T1, CCR6 (Homo sapiens, UniProt P51684).
T1 construct: The cDNA fragment covering the open reading frame for CCR6 chemokine receptor was cloned into pEGFP-N1 vector (CLONTECH); expressed in transfected cells; host or cells: HEK293 (transient)
T1 sequence (P51684 1-374): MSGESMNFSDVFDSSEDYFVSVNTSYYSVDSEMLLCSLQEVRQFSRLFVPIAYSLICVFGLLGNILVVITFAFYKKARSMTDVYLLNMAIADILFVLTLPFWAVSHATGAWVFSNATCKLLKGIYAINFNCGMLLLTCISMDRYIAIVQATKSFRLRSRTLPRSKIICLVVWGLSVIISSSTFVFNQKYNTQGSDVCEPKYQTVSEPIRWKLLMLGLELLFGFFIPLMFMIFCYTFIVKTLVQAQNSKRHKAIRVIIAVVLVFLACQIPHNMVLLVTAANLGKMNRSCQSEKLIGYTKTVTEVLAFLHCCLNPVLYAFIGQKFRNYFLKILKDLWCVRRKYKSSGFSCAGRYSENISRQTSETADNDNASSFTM
The experiment in a line: Internalization of CCR6-EGFP in transiently transfected HEK293 cells. The conditions noted are these: HEK293 cells transfected with pCCR6-EGFP; 37° C., 2 hours. As for the experimental part: (§1) The cDNA fragment covering the open reading frame for CCR6 chemokine receptor was cloned into pEGFP-N1 vector (CLONTECH). pCCR6-EGFP transiently expressing HEK293 cells were cultured in glass-bottom dishes in RPMI 1640 with 10% FBS. After 16-24 hours of serum starvation, cells were treated with CKLF1 C-terminal peptides or MIP3α at 37° C. for 2 hours. Cells were washed with cold PBS and fixed with 2% paraformaldehyde in PBS. The subcellular localization of CCR6-EGFP protein was visualized using a Leica TCS-NT confocal fluorescence microscope with a 63× oil immersion lens (Wetzler, Heidelberg, Germany). The excitation and emission wavelengths were 488 and 515-540 nm, respectively.

Assay [1] concerns the target T2, CCR4 (Homo sapiens, UniProt P51679).
T2 construct: The cDNA fragments covering the open reading frames for various chemokine receptors were obtained as follows; expressed in transfected cells; host or cells: HEK293 (transient, electroporation)
T2 sequence (P51679 1-360): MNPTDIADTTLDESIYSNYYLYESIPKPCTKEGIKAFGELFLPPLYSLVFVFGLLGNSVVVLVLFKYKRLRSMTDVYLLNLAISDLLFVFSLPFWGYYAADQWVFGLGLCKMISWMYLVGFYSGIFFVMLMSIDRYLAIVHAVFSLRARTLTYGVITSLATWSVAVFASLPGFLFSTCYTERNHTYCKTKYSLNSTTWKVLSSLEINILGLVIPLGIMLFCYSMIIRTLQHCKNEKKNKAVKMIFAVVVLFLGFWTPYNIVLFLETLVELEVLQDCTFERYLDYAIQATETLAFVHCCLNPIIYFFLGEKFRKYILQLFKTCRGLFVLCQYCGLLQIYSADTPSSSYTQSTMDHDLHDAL
In words: Chemotaxis assay (48-well microchemotaxis chamber) of HEK293 cells transfected with CCR4. As for the experimental part: (§2) HEK293 cells were grown in RPMI 1640 supplemented with 10% heat-inactivated FBS, penicillin (100 U/ml) and streptomycin (100 μg/ml). Every 4×10^6 HEK293 cells in 400 μl were transiently transfected by electroporation with 15 μg of the expression plasmid at 120 V, 20 ms using an electric pulse generator (Electro Square Porator ECM 830, BTX, San Diego, Calif.), and calcium mobilization assay and chemotaxis assays were performed 48 hours later.
(§3) The chemotaxis assay was performed using a 48-well microchemotaxis chamber (Neutroprobe; Cabin John, Md., U.S.A.). Chemoattractants were diluted in HEPES-buffered RPMI 1640 medium supplemented with 0.1% BSA and placed in the lower wells (28 μl/well). HEK293 cells transfected with pcDI-CCR4, -CCR5 were resuspended in the same medium at 2×10^6 cells/ml and added to the upper wells (50 μl/well), which were separated from the lower wells by a polyvinylpyrrolidone-free polycarbonate filter with 8-μm pores. The chamber was incubated for 2 hours at 37° C. in 5% CO2 and 95% air. Filters were removed from the chamber, washed, fixed, and stained with Three Step Stain Set. Cells that migrated were counted in 5 randomly selected high power fields (400×) per well. The chemotactic index (CI) was calculated from the number of cells that migrated to the control. Significant chemotaxis was defined as CI>2. In some experiments, cells were pretreated with TARC, RANTES, purified CKLF-myc protein or secreted CKLF1 peptides for 30 min. at 37° C., or 100 ng/ml PTX (ALEXIS Biochemicals Corporation) for 6 hours at 37° C. prior to subsequent stimulations.

The test system of the next assay is U937 cells. In words: Chemotaxis of U937 cells. The conditions noted are these: for migration (chemotaxis) of U937 cells: C19, C27, RANTES: U937 cells stimulated by 30 ng/ml IFN-γ. As for the experimental part: The chemotaxis assay was performed using a 48-well microchemotaxis chamber (Neutroprobe, Cabin John, Md., U.S.A.). U937 cells were stimulated by 30 ng/ml IFN-γ for 4 days because IFN-γ could increase the expression of chemokine receptors CCR1, CCR3, and CCR5 in U937 cells. Then part cells were incubated with mouse anti CCR5 100 μg/ml, and/or rat anti CCR3 10 μg/ml for 30 minutes at 37° C., and corresponding mouse IgG and rat IgG as controls. Chemoattractants RANTES, C19 and C27 were diluted in HEPES-buffered RPMI 1640 medium supplemented with 0.5% BSA to indicate concentration, and placed in the lower wells (28 μl/well). U937 cells stimulated by IFN-γ were resuspended in the same medium at 1×10^6 cells/ml and added to the upper wells (50 μl/well), which were separated from the lower wells by a polyvinylpyrrolidone-free polycarbonate filter with 5-μm pores pre-coated by 0.001% fibronectin. The chamber was incubated for 2 hours at 37° C. in 5% CO2 and 95% air. Filters were removed from the chamber, washed, fixed, and stained with Three Step Stain Set. Cells that migrated were counted in 5 randomly selected high power fields (400×) per well. The group with no Chemoattractants in the lower wells was used as a control. All samples were assayed twice at least. The chemotactic index (CI) was calculated from the number of cells that migrated to the control. Significant chemotaxis was defined as CI>2.

Assay [2] has as its target T3, CCR5 (Homo sapiens, UniProt P51681).
T3 construct: The cDNA fragments covering the open reading frames for various chemokine receptors were obtained as follows; expressed in transfected cells; host or cells: HEK293 (transient, electroporation)
In words: Chemotaxis assay (48-well microchemotaxis chamber) of HEK293 cells transfected with CCR5. The protocol: as §2
as §3, with “In some experiments, cells were pretreated with TARC, RANTES, purified CKLF-myc protein or secreted CKLF1 peptides for 30 min. at 37° C., or 100 ng/ml PTX (ALEXIS Biochemicals Corporation) for 6 hours at 37° C. prior to subsequent stimulations.” left out

Assay [3] addresses T3, CCR5. The experiment in a line: Calcium flux assay in CCR5-transfected HEK293 cells.
Text: (§4) The cDNA fragments covering the open reading frames for various chemokine receptors were obtained as follows. CCR4, CCR5 and CCR6 receptors were cloned from a K562 cell cDNA library by polymerase chain reaction (PCR). The primers were designed using the sequences from the following GenBank™ submissions: CCR4 (NM_005508.2), CCR5 (NM_000579) and CCR6 (AY242126). The fragments were cloned into an expression vector pcDI (modified in our lab from pcDNA3 vector (Invitrogen), in which the part between BgI II-Kpn I was replaced by the fragment of pCl vector (Promega) digested with BgI II-Kpn I) or pEGFP-N1 vector (CLONTECH) for efficient expression in HEK293 cells. The sequences coding receptors in expression plasmids were confirmed by DNA sequencing, which is consistent with the sequence submitted in GenBank™.
as §2
(§5) HEK293 cells transfected with pcDI-CCR4 or pcDI-CCR5 were grown in specialized glass-bottom microwell dishes (MatTek Corporation, U.S.A.) and loaded with 10 μM fluo-3/AM in HEPES-buffered saline at 37° C. for 1 hour in the dark. The cells were rinsed with HEPES-buffered saline and stimulated with 167 nM secreted CKLF1 peptides and 100 nM TARC or RANTES, respectively. Fluorescence was monitored at 488 nm (excitation wavelength) and 530 nm (emission wavelength) every 5 second using a Leica TCS-NT confocal fluorescence microscope with a 40× oil immersion lens (Wetzler, Heidelberg, Germany). The measurement was completed at room temperature and each field of cells was selected at random. Images were collected at 5 second intervals for 405 seconds. The images were analyzed for relative fluorescence using Leica confocal software. The relative fluorescence was determined using Microsoft Excel. All calcium flux assays were performed in the presence of extracellular calcium (in the absence of EDTA or EGTA) in the assay buffers. Therefore, both intracellular calcium release and extracellular calcium influx were analyzed.

The target in assay [4] is T2, CCR4. In words: Internalization of CCR4-EGFP in transiently transfected HEK293 cells. The conditions noted are these: HEK293 cells transfected with pCCR4-EGFP; 37° C., 2 hours. As for the experimental part: as §1, with “CCR4” for “CCR6”, “pCCR4-EGFP” for “pCCR6-EGFP”, “16 to 24” for “16-24”, “hours” for “hours of”, “TARC” for “MIP3α”, “CCR4-EGFP” for “CCR6-EGFP”
The target of assay [5] is T2, CCR4. In words: Calcium flux assay in CCR4-transfected HEK293 cells.
Text: as §4, §2, §5

T3 sequence (P51681 whole entry, the tested form may be a part): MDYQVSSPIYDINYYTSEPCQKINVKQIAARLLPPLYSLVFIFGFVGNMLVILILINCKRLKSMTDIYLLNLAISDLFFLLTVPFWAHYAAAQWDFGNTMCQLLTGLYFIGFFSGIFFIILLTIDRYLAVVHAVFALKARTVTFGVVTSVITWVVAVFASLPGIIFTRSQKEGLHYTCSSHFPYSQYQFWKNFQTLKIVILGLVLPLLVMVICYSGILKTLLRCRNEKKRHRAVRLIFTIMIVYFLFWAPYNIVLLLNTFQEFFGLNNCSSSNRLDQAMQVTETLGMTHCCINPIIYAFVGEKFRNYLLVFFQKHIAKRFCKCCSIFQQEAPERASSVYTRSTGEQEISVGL

“MIP3α: chemokine used as comparison treatment in the CCR6-EGFP internalization assay [reference compound]”: in the assay with CCR6, the “internalization of CCR6-EGFP” value is recorded as “internalization of chemokine receptors induced by MIP3α”.

On to “CKLF1-myc protein: recombinant CKLF1-myc protein expressed in Drosophila S2 cells and purified from the supernatant (ALIYRKLLFNPSGPYQKKPVHEKKEVL; not fully specified)”, for which the “migration (chemotaxis) of transfected cells” value with CCR4 [1] (CCR4-transfected HEK293 cells) is on record as “could induce the chemotaxis”. For the same molecule, the “migration (chemotaxis) of U937 cells” value in the assay on U937 cells is “can induce the chemotaxis”.

As for “RANTES: cognate ligand for CCR5 (peprotech), positive control [reference compound]”, in the assay with CCR5 [2] (CCR5-transfected HEK293 cells treated with 100 ng/ml PTX at 37° C. for 30 min), the “chemotaxis induced after PTX pretreatment” value is “completely abolished by PTX”. Besides, the “desensitization of the receptor to subsequent stimulation with RANTES, C27 or C19 (chemotaxis)” value with CCR5 [2] (HEK293/CCR5, pretreatment 1 mM RANTES or 2 μg/ml C27 or C19, 37° C., 30 min) was “could desensitize the receptor”. Moreover, in the assay with CCR5 [3] (CCR5-transfected HEK293 cells, 167 nM C27 or C19, 100 nM RANTES), the calcium flux entry is “induced calcium flux”. Moreover, in the assay with CCR5 [3] (CCR5 transfectants, pretreatment with 100 nM RANTES), the “desensitization of the receptor to subsequent stimulation with C27 and C19” value was “desensitized the receptor”. Further, the “desensitization of the receptor to subsequent stimulation with the purified CKLF1-myc protein (chemotaxis)” value with CCR4 [1] (CCR4-transfected HEK293, pretreatment) was “could desensitize the receptor”. Moreover, the “migration (chemotaxis) of U937 cells” value in the assay on U937 cells is on record as “could induce migration”. For the same molecule, the “chemotactic activity after neutralization of chemokine receptors” value with U937 cells (IFN-γ-stimulated U937 cells, mouse anti CCR5 and/or rat anti CCR3) is given as “obviously inhibited”.

B1: TARC: cognate ligand for CCR4 (peprotech), positive control (protein)
chain: ARGTNVGRECCLEYFKGAIPLRKLKTWYQTSEDCSRDAIVFVTVQGRAICSDPNNKRVKNAVKYLQSLERS
Consider B1, for which the “internalization of CCR4-EGFP” value with CCR4 [4] is given as “internalization of chemokine receptors induced by TARC”. The “chemotaxis induced after PTX pretreatment” value in the assay with CCR4 [1] (CCR4-transfected HEK293 cells treated with 100 ng/ml PTX at 37° C. for 30 min) is given as “completely abolished by PTX”. Further, in the assay with CCR4 [1] (HEK293/CCR4, pretreatment TARC or 2 μg/ml C27 or C19, 37° C., 30 min), the “desensitization of the receptor to subsequent stimulation with TARC, C27 or C19 (chemotaxis)” value was “could desensitize the receptor”. For the same molecule, the calcium flux result with CCR4 [5] (CCR4-transfected HEK293 cells, 167 nM C27 or C19, 100 nM TARC) is given as “induced calcium flux”. In addition, the “desensitization of the receptor to subsequent stimulation with C27 and C19” value with CCR4 [5] (CCR4 transfectants, pretreatment with 100 nM TARC) was “desensitized the receptor”.
